{"source": "patent US20100056764A1", "about": "(Novo Nordisk, published 2010)", "key": {"[1]": {"target": "T1, human NKG2D (hNKG2D) on the cell surface (human, UniProt P26718 1-216)", "T1 chain": "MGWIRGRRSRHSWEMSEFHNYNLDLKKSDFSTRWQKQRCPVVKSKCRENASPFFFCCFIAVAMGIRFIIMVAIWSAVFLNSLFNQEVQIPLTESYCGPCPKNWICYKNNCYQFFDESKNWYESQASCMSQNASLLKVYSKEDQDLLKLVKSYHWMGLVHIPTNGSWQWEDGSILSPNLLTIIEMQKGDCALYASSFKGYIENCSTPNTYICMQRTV", "assay": "cell-based or functional assay"}, "[2]": {"target": "T1, human NKG2D (hNKG2D) on the cell surface", "assay": "flow cytometry, dose-response on NKG2D- and DAP10-expressing BaF/3 cells"}, "[3]": {"target": "T2, recombinant NKG2D-Fc protein (R&D Systems), immobilized on a Biacore CM5 chip (human, UniProt P26718 78-216)", "T2 construct": "also called NKG2D-hFc; hFc-NKG2D; not shown: Fc portion of the purchased fusion protein", "T2 sequence": "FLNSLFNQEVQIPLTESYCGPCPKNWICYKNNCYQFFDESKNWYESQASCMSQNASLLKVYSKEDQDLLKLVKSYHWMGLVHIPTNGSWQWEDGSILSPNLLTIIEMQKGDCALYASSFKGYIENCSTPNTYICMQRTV", "assay": "SPR (Biacore), NKG2D-Fc immobilized on CM5 chip at 1200 RU, antibody in solution, Langmuir fit", "experimental": "Protein immobilisation. […] Recombinant NKG2D-Fc proteins were immobilized covalently to carboxyl groups in the dextran layer on a Sensor Chip CM5 (Biacore GE Healthcare; BR-1000-14). The sensor chip surface was activated with EDC/NHS (N-ethyl-N′-(3-dimethylaminopropyl)carbodiimidehydrochloride and N-hydroxysuccinimide (Biacore GE Healthcare; BR-1000-50)). […] Deactivation of the remaining activated groups was performed using 100 mM ethanolamine pH 8 (Biacore GE Healthcare; BR-1000-50).\n[…] The resulting sensorgrams were analysed by global fitting using the Langmuir model. The dissociation constant (KD) was calculated as KD=kd/ka."}, "[4]": {"target": "T1, human NKG2D (hNKG2D) on the cell surface", "assay": "flow cytometry, NKG2D/DAP10 BaF/3 cells pre-incubated with antibody, then 1 µg MICA-mFc (competitor)", "experimental": "(§1) Flow cytometry assays—MICA blockade. […] The cells were then analysed on a B&D FACSArray flow cytometer. The degree of reduction of MICA binding by preincubation was analysed as MFI (mean fluorescence intensity) of binding with pre-incubation in % of binding of MICA without preincubation."}, "[5]": {"target": "T1, human NKG2D (hNKG2D) on the cell surface", "assay": "flow cytometry, dose-response on NKG2D- and DAP10-expressing BaF/3 cells, y axis % of max binding"}, "[6]": {"target": "T3, cynomolgous monkey NKG2D on NK, CD8+ T and gamma-delta T cells (cynomolgous monkey (Macaca fascicularis), UniProt P61252 1-216)", "T3 construct": "whole, on cells; Target on cynomolgous PBMC and whole blood cells; also called cynomologous NKG2D; cyno NKG2D", "T3 sequence (looked up)": "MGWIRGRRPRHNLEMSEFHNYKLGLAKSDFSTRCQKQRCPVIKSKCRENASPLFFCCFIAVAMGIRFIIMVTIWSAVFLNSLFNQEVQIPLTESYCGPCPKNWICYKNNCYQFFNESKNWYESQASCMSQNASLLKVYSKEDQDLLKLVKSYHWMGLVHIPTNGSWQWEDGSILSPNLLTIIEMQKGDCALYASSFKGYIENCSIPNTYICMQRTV", "assay": "flow cytometry on cynomolgous PBMC, NK cells gated; the legend names 16F16 purified from the original hybridoma", "experimental": "Flow cytometry assay—man and monkey PBMC. Perifieral blood mononuclear cells (PMBCs) were isolated from humans, or from Cynomologous or Rhesus monkey. All animal work were performed according to Danish National Research Council guidelines."}, "[7]": {"target": "T1, human NKG2D (hNKG2D) on the cell surface", "assay": "flow cytometry blocking assay on NKG2D/DAP10-expressing BaF/3 cells: pre-incubation with the antibody, then 1 µg MICA-mFc; y axis % remaining MICA-Fc binding", "experimental": "as §1"}}, "note": "“And” between values parts separate entries of the source, which are not always exact repeats. Equal entries are not always repeated.", "data": [{"binder": "16F16, fully human anti-hNKG2D monoclonal antibody, recombinantly expressed as IgG4 isotype (antibody, V domains shown, also called 16F16 IgG4; 16F16 (IgG4)) VH: EVQLVESGGGLVKPGGSLRLSCAASGFTFSSYSMNWVRQAPGKGLEWVSSITSSSSYIYYADSVKGRFTISRDNAKNSLYLQMNSLRAEDTAVYYCARDRRYFDWFPLDYRGQGTLVTVSS VL: DIQMTQSPSSLSASVGDRVTITCRASQGISSWLAWYQQKPEKAPKSLIYAASSLQSGVPSRFSGSGSGTDFTLTISSLQPEDFATYYCQQYNGYPYTFGQGTKLEIKR", "values": [{"measurement": "EC50 (µg/ml), inhibition of NK cell killing of MICA-expressing target cells (51Cr release)", "setting": "[1]", "value": 0.14, "unit": "µg/mL"}, {"measurement": "EC50 (µg/ml), inhibition of NK cell killing of ULPB3-expressing target cells (51Cr release)", "setting": "[1]", "value": 0.35, "unit": "µg/mL"}, {"measurement": "EC50", "setting": "[2]", "value": "0.051 µg/mL and ~0.34 nM"}, {"measurement": "Kd", "setting": "[3]", "value": 178, "unit": "pM"}, {"measurement": "Full blockade of 1 µg MICA-Fc (antibody concentration)", "setting": "[4]", "value": 0.59, "unit": "µg/mL"}, {"measurement": "IC50", "setting": "[4]", "value": 0.019, "unit": "µg/mL"}, {"measurement": "EC50 (read off the curve)", "setting": "[5]", "value": "~30", "unit": "pM"}, {"measurement": "binding result", "setting": "[6]", "value": "binds"}, {"measurement": "IC50 (read off the curve)", "setting": "[7]", "value": "~20", "unit": "pM"}]}]}
